Test results: patent publication US8071348B2, “Protein tyrosine phosphatase substrate-trapping double mutant and uses thereof” (Albert Einstein College of Medicine of Yeshiva University, priority 2002, dated 2011)

Legend:
[1] = target: epidermal growth factor receptor (EGFR) of COS1 cells, tyrosine-phosphorylated (monkey (COS1 cells)); assay: cell-based or functional assay
[2] = target: epidermal growth factor receptor (EGFR) of COS1 cells, tyrosine-phosphorylated (monkey (COS1 cells)); assay: co-immunoprecipitation from EGF-treated COS1 lysates with anti-HA agarose, anti-pTyr blot

Substance “HA-tagged full-length human PTP1B D181A/Q262A (from UniProt P18031 1-435) (enzyme)” has a protection of the phosphorylated EGF receptors in COS1 cells, against the D181A mutant (anti-pTyr immunoblot of lysates) [1] of 3 fold and a fold greater quantity of tyrosine-phosphorylated EGF receptor co-precipitated than with the D181A mutant [2] of over 3 fold.
